Consider seven molecules from US20230272047A1 (University of Washington, published 2023).

Assay [1] addresses T1, human transferrin receptor 1 ectodomain, biotinylated (human, UniProt P02786 89-760, biotinylated in vitro (Avidity kit) at the C-terminal Avi tag).
T1 construct: extracellular domain; Expressed as IgK-sFLAG-His-Sen-TEV-TfR1-his-Avi in the Daedalus system; The N-terminal expression tag was cleaved with TEV; In yeast display it was detected with streptavidin-phycoerythrin; also called hTfR; hTfR ectodomain; not shown: C-terminal his-Avi tag (printed 'his-Avin')
Nature of the assay: single concentration biolayer interferometry (1 µM design). A general note: Biolayer interferometry detects binding as a change in optical thickness at a sensor tip.

For assay [2], the target named is T1, human transferrin receptor 1 …. Kind of assay: biolayer interferometry, biotinylated hTfR on streptavidin biosensors.
Assay [3] shares this target. Kind of assay: single concentration biolayer interferometry, biotinylated hTfR on streptavidin biosensors.

T1 sequence (P02786 89-760): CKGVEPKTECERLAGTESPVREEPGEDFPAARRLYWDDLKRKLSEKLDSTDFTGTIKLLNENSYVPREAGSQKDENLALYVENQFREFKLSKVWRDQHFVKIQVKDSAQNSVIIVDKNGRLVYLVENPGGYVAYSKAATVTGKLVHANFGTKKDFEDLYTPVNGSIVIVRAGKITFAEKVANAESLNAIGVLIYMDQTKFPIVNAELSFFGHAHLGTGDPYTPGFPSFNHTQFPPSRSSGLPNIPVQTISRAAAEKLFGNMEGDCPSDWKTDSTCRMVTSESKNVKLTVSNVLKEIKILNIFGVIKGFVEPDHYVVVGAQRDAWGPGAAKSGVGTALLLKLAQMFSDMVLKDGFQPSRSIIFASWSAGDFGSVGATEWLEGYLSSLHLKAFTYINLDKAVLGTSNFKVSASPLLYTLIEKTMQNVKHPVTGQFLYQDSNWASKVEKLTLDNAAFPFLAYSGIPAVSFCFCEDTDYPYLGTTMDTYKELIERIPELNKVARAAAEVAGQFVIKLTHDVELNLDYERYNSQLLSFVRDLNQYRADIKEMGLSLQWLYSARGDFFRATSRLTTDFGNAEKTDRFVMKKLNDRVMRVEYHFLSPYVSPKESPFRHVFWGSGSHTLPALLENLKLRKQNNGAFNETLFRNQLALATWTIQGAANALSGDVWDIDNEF

B1: 3DS2 (designed binder)
chain: TEDEEYEERVREALEEAKKKNEHNEELVAQIALLILGAVVVIVAESEEAAKRAAQYVRERVPNAKVYVFDNFVFVHAESREDQEAAWRAAQEAM
notes: Expressed in E. coli; the N-terminal His tag was cleaved with TEV
With B1, the binding result in assay [1] is on record as “binds”.

B2: 3DS11 (designed binder)
chain: DLEERVRKAVNEAQEEAKRNNLDENEAALEAALRLGVVVLVVVDSEEQAERVAKYVHKLVPSVRVVIYNNLVFFHVDTDEEARRVYEAAERAQ
notes: as for B1
For B2, the binding result in assay [1] is given as “binds”.

B3: 3DS6 (designed binder)
chain: DKEDELRELAKELVREYEKRGVSEEEIALLVALAANFAVVIVFDNEEQAERAAKYIKKKLPSAVIVIFNNFVFVYVDSREDERIAWELAQEAQ
notes: as for B1
With B3, in assay [1], the binding result is “binds”.

B4: 3DS23 (designed binder)
chain: DEEEEEKEEIRRQLDEARERGVSEEEAAIEVAQNFNFIVVVVVDSEEEAERVAEYVRREVPRVHIVIVQNVVFFRVDSDEDARRVWELAQKAQ
notes: as for B1
Turning to B4, the binding result in assay [1] is reported as “binds”.

B5: 2DS25 (purified from E. coli) (designed binder)
chain: DEEEIQKAIEELLRKGVSEEEAAIIIAQRFNVAVVVVVQDERQAKHISEYIRRYIPEADVILFANIVVIKVETEELRKRVWEAAQKAY
notes: Expressed in E. coli with an N-terminal histidine tag and a TEV site; Eluted as a monomer on SEC
As to B5, the binding result in assay [2] was “binds”.

B6: 2DS25_KO (W81A/Q85A) (designed binder)
chain: DEEEIQKAIEELLRKGVSEEEAAIIIAQRFNVAVVVVVQDERQAKHISEYIRRYIPEADVILFANIVVIKVETEELRKRVAEAAAKAY
For the molecule B6, the binding result in assay [3] is on record as “no binding”.

B7: 3DS10 (designed binder)
chain: TEEERLREEVKRVAQRAEEEGANEEEIAQILLLALNAAVVVVVESEEQAERVAQYIREVVPEALVIVYNNFVVIFVESDEAARRAWEAAERAQ
notes: as for B1
B7: the binding result in assay [1] is recorded as “binds”.
